Test results reported in the DeepSol protein solubility set.

test: soluble on expression in E. coli; label from the status in PepcDB or PDB records

Sequence | soluble on expression in E. coli
MESRYVLTGRYDSAPATDGSGTALGWTVAWKNNYRNAHSATTWSGQYVGGAEARINTQWLLTSGTTEANAWKSTLVGHDTFTKVKPSAASGGGSAEAGITGTWYNQLGSTFIVTAGADGALTGTYESA | soluble
MESTLQIMPVQRTSRNFGEYAEEAVIIEEPIIKQKRPLFIEANTIEASLEHLRNDCIIPVFAKDNEATLSHVAFIEAVQDATNTFFSGEQIESPDIRVSHVIKGRIPEAIHKPANQLLESDKTIYYERCAFVIEVPTIYETVHGNRLTLTIGGVRAYNHTNLYSKKGAERFKVFIGFTCKVCTNLCVSTDGYLSCLEVTNTRDLYQAVLEMFHKYDAAKHIHLMQSLGNTSMTEHQFCQLLGRMRLYQSLPQGYQKDIPKMLLTDTQVNNVARAYINDENFGSLGNDLSMWKLYNLLTGANKSSYIDSFLDRAYNATELATGICSALHGDNKYQWFLS | not soluble
MESVYLFSSGTLKRKANTICLETESGRKYIPVENVMDIKVFGEVDLNKRFLEFLSQKRIPIHFFNREGYYVGTFYPREYLNSGFLILKQAEHYINQEKRMLIAREIVSRSFQNMVDFLKKRKVRADSLTRYKKKAEEASNVSELMGIEGNAREEYYSMIDSLVSDERFRIEKRTRRPPKNFANTLISFGNSLLYTTVLSLIYQTHLDPRIGYLHETNFRRFSLNLDIAELFKPAVVDRLFLNLVNTRQINEKHFDEISEGLMLNDEGKSLFVKNYEQALRETVFHKKLNRYVSMRSLIKMELHKLEKHLIGEQVFGSEE | soluble
METDNVLKRILEIEHGFVHILDAAKEILSSSSEERSFAIASEFFDHEAYQPRMLATAILGHLAGTNSEALLFLKDRVSLDMNWRVQEMLAKAFDTFCKEQGYEKSLPVIREWLDSDNANVVRAVTEGLRIWTSRPFFKENPCLAIEWLSRHRGHESEYVRKSVGNALKDISKKHKESVAEELKKWDLSDPLVLFTYKHASKHPDKDIKKQ | not soluble
METFRTLLAKAALGNGISSTAYDTAWVAKLGQLDDELSDLALNWLCERQLPDGSWGAEFPFCYEDRLLSTLAAMISLTSNKHRRRRAAQVEKGLLALKNLTSGAFEGPQLDIKDATVGFELIAPTLMAEAARLGLAICHEESILGELVGVREQKLRKLGGSKINKHITAAFSVELAGQDGVGMLDVDNLQETNGSVKYSPSASAYFALHVKPGDKRALAYISSIIQAGDGGAPAFYQAEIFEIVWSLWNLSRTDIDLSDPEIVRTYLPYLDHVEQHWVRGRGVGWTGNSTLEDCDTTSVAYDVLSKFGRSPDIGAVLQFEDADWFRTYFHEVGPSISTNVHVLGALKQAGYDKCHPRVRKVLEFIRSSKEPGRFCWRDKWHRSAYYTTAHLICAASNYDDALCSDAIGWILNTQRPDGSWGFFDGQATAEETAYCIQALAHWQRHSGTSLSAQISRAGGWLSQHCEPPYAPLWIAKTLYCSATVVKAAILSALRLVDESNQ | not soluble
METKFYNHQGGHLILYFAGWGTPPDAVNHLILPENHDLLICYDYQDLNLDFDFSAYRHIRLVAWSMGVWAAERALQGIRLKSATAVNGTGLPCDDNFGIPCTVFKGTLENLTENTRLKFERRMCGDKASFEDYQQFPARPFGEIHQELIALFAMIGQDRRTDLIRWTNALVGSGDKIFMPANQHRYWTPRCTVREIDVGHYLFSRFTHWSALWNH | not soluble
METKWRNGDIVQPVLNPEPNTVSYSQSSLIHLVGPSDCTLHGFVHGGVTMKLMDEVAGIVAARHCKTNIVTASVDAINFHDKIRKGCVITISGRMTFTSNKSMEIEVLVDADPVVDNSQKRYRAASAFFTYVSLNQEGKPMPVPQLVPETEDEKKRFEEGKGRYLQMKAKRQGHTEPQP | soluble
METMCEVKVITGTSAAAEAAKLADVDVIAAYPITPQTTCVEKLAEFVANGELDAEYIKVESEHSAMSACIGAAATGARTFTATASQGLALMHEMLFIASGMRLPIVMMVANRALSAPINIWNDHQDSIAERDSGWIQIYVEDNQETLDSIIQAYKIAENEDVLLPVMVCLDGFILTHTVEPVTIPKAERVREFLGVYEPKHAYLDPDRPITQGPVGVPDCYMETRKQIEEAMERAKKVIRDVNEEFAEWFKRKY | not soluble
